Laboratory results from paper PMC10855774, “Role of Spexin in White Adipose Tissue Thermogenesis under Basal and Cold-Stimulated Conditions” (International Journal of Molecular Sciences, 2024).

Test system: beige precursors (PDGFRα+; EBF2+)
Assay: Beige precursors (PDGFRα+; EBF2+) in the SVF by flow cytometry
Assay type: in vivo, mice
Details: SPX for 3 days prior to cold exposure; n = 4, t-test
Protocol: Fresh EAT pads were dissected, weighed, and digested with collagenase, as previously reported. Briefly, fat tissue was minced and digested using 1 mg/mL of the collagenase solution in DMEM (at 37 °C for 40–60 min). After centrifugation (1000 rpm for 15 min), the SVF pellets were filtered (in a 50-µm-mesh nylon cloth) and washed with DMEM (x3). SVF cells were then resuspended in DMEM supplemented with 10% (v/v) FBS, HEPES ([…]), 100 IU/mL of penicillin, and 100 µg/mL of streptomycin (basal medium) and reserved for the flow cytometry protocol.
The SVF was prepared as reported above and counted and filtered through a 70-μM cell strainer. To block unspecific binding, the cells were resuspended in 10% inactivated FBS in FACS buffer (1% BSA in PBS) for 10 min. Then, the cells were incubated with the surface antibody anti-Pdgfrα (CD140a)-PE/Cy7 (1:200, BioLegend, San Diego, CA, USA) and washed twice with FACS buffer, followed by centrifugation (300× g, 5 min). Fixation was performed with 2% paraformaldehyde in PBS for 20 min at room temperature. After washing, the cells were subjected to permeabilization with 0.1 % Triton X100 in PBS for 15 min at room temperature. […] The samples were analyzed on a FACS Calibur flow cytometer (BD bioscience, Franklin Lakes, NJ, USA). […]

B1: Spexin (peptide, UniProt Q9BT56 27-116, looked up)
Spexin: APQRLLERRNWTPQAMLYLKGAQGRRFISDQSRRKDLSDRPLPERRSPNPQLLTIPEAATILLASLQKSPEDEEKNFDQTRFLEDSLLNW
modifications: Spexin
notes: novel adipokine, a peptide of 14 amino acids of the galanin family; purchased from Tocris
abundance (%) of beige precursors in the SVF of EAT: no changes were observed in either of the two AT depots studied | abundance (%) of beige precursors in the SVF of IAT: no changes were observed in either of the two AT depots studied
